In patent US20060019335A1, “Compositions and methods to promote c-IAP autodegradation” (priority 2004, published 2006):

B1: Smac: wild type (WT) Smac polypeptide from Homo sapiens, SEQ ID NO 1, 239 amino acids; second mitochondria-derived activator of caspase (protein, listed as Homo sapiens)
chain: MAALKSWLSRSVTSFFRYRQCLCVPVVANFKKRCFSELIRPWHKTVTIGFGVTLCAVPIAQKSEPHSLSSEALMRRAVSLVTDSTSTFLSQTTYALIEAITEYTKAVYTLTSLYRQYTSLLGKMNSEEEDEVWQVIIGARAEMTSKHQEYLKLETTWMTAVGLSEMAAEAAYQTGADQASITARNHIQLVKLQVEEVHQLSRKAETKLAEAQIEELRQKTQEEGEERAESEQEAYLRED
B2: Smac ΔA: Smac mutant lacking the initial Ala (Ala deletion mutant polypeptide), used as negative control (protein, UniProt Q9NR28 22-239, looked up, variant A1*)
Diablo IAP-binding …: LCVPVVANFKKRCFSELIRPWHKTVTIGFGVTLCVPIAQKSEPHSLSSEALMRRAVSLVTDSTSTFLSQTTYALIEAITEYTKAVYTLTSLYRQYTSLLGKMNSEEEDEVWQVIIGARAEMTSKHQEYLKLETTWMTAVGLSEMAAEAAYQTGADQASITARNHIQLVKLQVEEVHQLSRKAETKLAEAQIEELRQKTQEEGEERAESEQEAYLRED

Tests used:
[1] = target: T1, c-IAP2 (Homo sapiens, UniProt Q13489); experiment: Co-transfection of HeLa cells with c-IAP2 and Smac plasmids, Western blot; format: cell-based; conditions: for ubiquitylation and degradation (E3 activity) of c-IAP2: co-transfection, FIG. 2B
T1 construct: produced not only the expected full length c-IAP1 or c-IAP2; expressed in transfected cells; host or cells: HeLa
T1 sequence (Q13489 whole entry): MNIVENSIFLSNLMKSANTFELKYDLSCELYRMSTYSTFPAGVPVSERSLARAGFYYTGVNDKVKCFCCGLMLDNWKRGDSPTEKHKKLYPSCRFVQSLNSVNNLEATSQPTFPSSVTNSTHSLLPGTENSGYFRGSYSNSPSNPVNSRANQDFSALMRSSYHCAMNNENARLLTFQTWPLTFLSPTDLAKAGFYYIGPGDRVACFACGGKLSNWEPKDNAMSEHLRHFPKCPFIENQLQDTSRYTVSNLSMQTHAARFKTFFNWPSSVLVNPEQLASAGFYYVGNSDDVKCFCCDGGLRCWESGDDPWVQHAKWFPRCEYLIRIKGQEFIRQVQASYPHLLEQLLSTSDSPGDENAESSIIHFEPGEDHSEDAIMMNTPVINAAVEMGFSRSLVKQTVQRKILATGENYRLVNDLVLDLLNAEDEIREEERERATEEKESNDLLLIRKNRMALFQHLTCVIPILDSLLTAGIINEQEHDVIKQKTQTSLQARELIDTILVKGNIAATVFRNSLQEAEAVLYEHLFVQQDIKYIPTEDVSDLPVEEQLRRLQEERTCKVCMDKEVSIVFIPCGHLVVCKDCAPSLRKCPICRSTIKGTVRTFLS
Description: (§1) Transfection of cultured Cells—HeLa cells were grown in DMEM supplemented with 10% fetal bovine serum. Cells were seeded onto 6-well plates the day before transfection and transfected at 70% confluence by using Lipofectin combined with Plus reagent (Invitrogen) according to the manufacture's protocols. The IAP expression plasmids (3 μg each for c-IAP1, c-IAP2 and XIAP, and 250 ng each for Livin αand Livin β) together with 2.5 μg of Smac expression plasmids or pcDNA3.1(−) blank plasmid were used for single-well transfection in the absence of antibiotics. The cells were harvested 12 hours after the transfection and lysed with 0.5% CHAPS in 20 mM HEPES (pH 7.4), 10 mM KCl, 1 mM MgCl2 and 1 mM DTT. The lysates were centrifuged and the protein concentrations of the supernatants were quantified by the modified Bradford method (36).
(§2) Western Blot analysis—Proteins were resolved by SDS-PAGE and transferred to nitrocellulose filters. The filters were blocked with 5% milk and probed with antibodies as indicated. The signals were visualized with the enhanced chemiluminescence method.
To investigate the effect of Smac polypeptide on IAP protein levels, HeLa cells were transfected with the expression vectors for Smac and various IAPs. Briefly, HeLa cells were either transfected with IAP alone (Lane 2, 4 and 6), or together with Smac polypeptide (Lane 3, 5 and 7), or with Smac polypeptide alone (Lane 1). Equal amounts of cell lysates (7 μg) were immunoblotted with either the HRP-conjugated anti-FLAG antibody (shown in the top panel) in order to detect N-terminal 3×FLAG tagged IAPs, or with the anti-c-Myc antibody (bottom panel) to detect C-terminal c-Myc tagged Smac. The ubiquitin fusion technique was used to secure the production of mature Smac protein with the expected N-terminal AVPI motif (6, 37).
Because it is known that the His^588 residue in the RING finger domain is important for the IAP E3 activity (22), this residue was mutated to test whether Smac stimulated the ubiquitylation-mediated degradation of both c-IAP1 and c-IAP2. In each case, His^588 in c-IAP1 and His^574 in c-IAP2 was mutated to Ala (H588A mutant and H574A mutant, respectively) and the results are depicted in FIGS. 2A and 2B. The c-IAP1 WT or H588A mutant plasmids together with either Smac WT or Smac ΔA mutant, or with pcDNA3.1 (−) blank plasmid were co-transfected into HeLa cells (FIG. 2A). The c-IAP2 WT or H574A mutant plasmids together with either Smac WT or Smac ΔA mutant, or with pcDNA3.1 (−) blank plasmid were co-transfected into HeLa cells (FIG. 2B). As controls, HeLa cells were also transfected with either Smac WT or ΔA plasmids together with the blank p3×FLAG-CMV-7 plasmid. The transfected cells were cultivated either in the absence (see lanes 1-7 of FIGS. 2A and 2B) or in the presence (see lanes 8-14 of FIGS. 2A and 2B) of MG132. Equal amounts of soluble proteins (7 μg) from the transfected cells were immunoblotted with either the HRP-conjugated anti-FLAG antibody (see top panel of FIGS. 2A and 2B) to detect N-terminal 3×FLAG tagged IAPs, or with the anti-c-Myc antibody (see middle panel of FIGS. 2A and 2B) to detect C-terminal c-Myc tagged Smac. The anti-Actin immunoblotting results were to show equal protein loading (see bottom panel of FIGS. 2A and 2B).

[2] = target: T2, Livin β (Homo sapiens, UniProt Q96CA5); experiment: Co-transfection of HeLa cells with Livin β and Smac plasmids, Western blot; format: cell-based; conditions: data not shown
T2 construct: expressed in transfected cells; host or cells: HeLa
T2 sequence (Q96CA5 1-280 isoform Q96CA5-2): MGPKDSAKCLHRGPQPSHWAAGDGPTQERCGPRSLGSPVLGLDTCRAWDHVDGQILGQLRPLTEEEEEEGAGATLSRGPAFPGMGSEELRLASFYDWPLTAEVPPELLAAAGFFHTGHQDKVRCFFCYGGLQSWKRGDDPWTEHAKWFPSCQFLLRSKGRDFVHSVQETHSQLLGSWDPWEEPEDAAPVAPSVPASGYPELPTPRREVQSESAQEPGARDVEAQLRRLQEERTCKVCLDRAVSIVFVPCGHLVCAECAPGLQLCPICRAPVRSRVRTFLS
Description: as §1, §2
In the current study, Livin was also transiently expressed in HeLa cells to determine the ubiquitylation activity (see FIG. 3B). Briefly, Livin α WT or H269A mutant plasmids together with Smac WT or Smac ΔA mutant, or with pcDNA3.1(−) blank plasmid, were co-transfected into HeLa cells. […]

[3] = target: T1, c-IAP2; experiment: In vitro ubiquitylation assay of c-IAP2; format: biochemical; conditions: data not shown
Description: In vitro ubiquitylation assays—In vitro ubiquitylation assays were carried out as previously described (29). IAP proteins (200 nM) were incubated with or without Smac polypeptide for 2 hours at 30° C. in a reaction system containing 50 mM Tris-HCl (pH 7.5), 50 mM NaCl, 2 mM Mg-ATP, 20 μM mammalian ubiquitin, 100 nM rabbit ubiquitin-activating enzyme (E1) and 400 nM of recombinant human ubiquitin-conjugating enzymes (E2). The reactions were stopped by adding equal volumes of 2×SDS sample loading buffer followed by Western Blot analysis.
The observation that Smac promotes c-IAP1 auto-ubiquitylation in HeLa cells was further confirmed in vitro by using UbCH6 as the E2.

Row | Molecule | level of c-IAP2 ([1]; co-expression, absence of MG132, FIG. 2B) | ubiquitylation and degradation (E3 activity) of c-IAP2 [1] | protein level of c-IAP2 ([1]; mature Smac co-expressed, FIG. 1) | transfection results of Livin β (auto-ubiquitylation, degradation) [2] | c-IAP2 auto-ubiquitylation in vitro [3]
1 | B1 | nearly non-detectable level | strongly promoted the ubiquitylation and degradation of c-IAP2 | significantly decreased | substantially similar to that of Livin α | 
2 | B2 |  | did not promote the E3 activity |  |  | did not promote the E3 activity
